Source: publication doi:10.1101/528042 (bioRxiv, 2019)

Target: the molecule itself
Assay: SEC

B1: S-OPA1 (short S1 isoform of splice form 1 human OPA1), wild type (natural protein, UniProt O60313 196-960, looked up)
chain: TDRGSESDKHFRKVSDKEKIDQLQEELLHTQLKYQRILERLEKENKELRKLVLQKDDKGIHHRKLKKSLIDMYSEVLDVLSDYDASYNTQDHLPRVVVVGDQSAGKTSVLEMIAQARIFPRGSGEMMTRSPVKVTLSEGPHHVALFKDSSREFDLTKEEDLAALRHEIELRMRKNVKEGCTVSPETISLNVKGPGLQRMVLVDLPGVINTVTSGMAPDTKETIFSISKAYMQNPNAIILCIQDGSVDAERSIVTDLVSQMDPHGRRTIFVLTKVDLAEKNVASPSRIQQIIEGKLFPMKALGYFAVVTGKGNSSESIEAIREYEEEFFQNSKLLKTSMLKAHQVTTRNLSLAVSDCFWKMVRESVEQQADSFKATRFNLETEWKNNYPRLRELDRNELFEKAKNEILDEVISLSQVTPKHWEEILQQSLWERVSTHVIENIYLPAAQTMNSGTFNTTVDIKLKQWTDKQLPNKAVEVAWETLQEEFSRFMTEPKGKEHDDIFDKLKEAVKEESIKRHKWNDFAEDSLRVIQHNALEDRSISDKQQWDAAIYFMEEALQARLKDTENAIENMVGPDWKKRWLYWKNRTQEQCVHNETKNELEKMLKCNEEHPAYLASDEITTVRKNLESRGVEVDPSLIKDTWHQVYRRHFLKTALNHCNLCRRGFYYYQRHFVDSELECNDVVLFWRIQRMLAITANTLRQQLTNTEVRRLEKNVKEVLEDFAEDGEKKIKLLTGKRVQLAEDLKKVREIQEKLDAFIEALHQEK
stoichiometry N: 2
